Data set [1] deals with Flag-tagged human MLKL kinase-like domain, phosphomimic mutant T357ES358D, expressed in HEK293T (human). Briefly: cross-linking; whole-cell lysates of HEK293T cells expressing Flag-tagged MLKL KLD proteins (24 h); 500 uM DSG 30 min; SDS-PAGE, western blot anti-Flag. A general note: A western blot detects proteins with antibodies after separation by electrophoresis.
Data set [2] addresses human MLKL kinase-like domain, phosphor-sites' mutant T357A/S358A (179~471 aa), recombinant (human) (UniProt Q8NB16). Briefly: cross-linking; purified recombinant MLKL KLD proteins with 500 uM DSG, 30 min, room temperature; stopped with 100 mM Tris-HCl pH 7.5; SDS-PAGE, Coomassie.
Data set [3] concerns the target Flag-tagged mouse MLKL kinase-like domain, phosphomimic mutant S345D, expressed in HEK293T (mouse) (UniProt Q9D2Y4). Briefly: cross-linking; whole-cell lysates of HEK293T cells expressing Flag-tagged MLKL KLD proteins (24 h); 500 uM DSG 30 min; SDS-PAGE, western blot anti-Flag.
Data set [4] deals with the molecule itself. Briefly: SEC; gel filtration of purified recombinant human MLKL KLD proteins on Superdex 75; fractions on SDS-PAGE, Coomassie; standards BSA 67 kDa, ovalbumin 44 kDa, ribonuclease A 14 kDa.
Data set [5] concerns the molecule itself. Nature of the data set: cross-linking; purified recombinant MLKL KLD proteins with 500 uM DSG, 30 min, room temperature; stopped with 100 mM Tris-HCl pH 7.5; SDS-PAGE, Coomassie.
Data set [6] concerns the molecule itself. Nature of the data set: SEC; gel filtration of purified His-Sumo tagged human MLKL (126~181 aa) on Superdex 200; fractions on SDS-PAGE, Coomassie. (Size exclusion chromatography separates by hydrodynamic size, large species first.)

Where a chain is given by its changes, count along the chain named. Names may count otherwise.

By stoichiometry N is commonly meant the number of molecules, sites or subunits per partner or assembly. In turn, “Flag-tagged human MLKL kinase-like domain, phosphomimic mutant T357ES358D, expressed in HEK293T (domain or fragment)” returned a stoichiometry N in data set [1] of 2.
As to “human MLKL kinase-like domain, phosphor-sites' mutant T357A/S358A (179~471 aa), recombinant (from UniProt Q8NB16 179-471) (domain or fragment)”, the stoichiometry N in data set [2] stood at 2.
“Flag-tagged mouse MLKL kinase-like domain, phosphomimic mutant S345D, expressed in HEK293T (from UniProt Q9D2Y4 192-456) (domain or fragment)” gave a stoichiometry N in data set [3] of 2.

B1: human MLKL kinase-like domain, phosphomimic mutant T357E/S358D (179~471 aa), recombinant (domain or fragment, UniProt Q8NB16 179-471, looked up)
chain: YLPPKCMQEIPQEQIKEIKKEQLSGSPWILLRENEVSTLYKGEYHRAPVAIKVFKKLQAGSIAIVRQTFNKEIKTMKKFESPNILRIFGICIDETVTPPQFSIVMEYCELGTLRELLDREKDLTLGKRMVLVLGAARGLYRLHHSEAPELHGKIRSSNFLVTQGYQVKLAGFELRKTQEDMSLGTTREKTDRVKSTAYLSPQELEDVFYQYDVKSEIYSFGIVLWEIATGDIPFQGCNSEKIRKLVAVKRQQEPLGEDCPSELREIIDECRAHDPSVRPSVDEILKKLSTFSK
notes: Mixed lineage kinase domain-like protein (MLKL), human, kinase-like domain, residues 179-471, T357E/S358D; GST removed with HRV3C protease; residues of the site may remain at the N-terminus; source: Sf9 insect cells (baculovirus), purified (Glutathione Sepharose 4B, on-column HRV3C digestion, Superdex 75 or 200); not shown: GST, N-terminal, cleaved
Turning to B1, in data set [4], the “stoichiometry N” value came to 2.

B2: human MLKL kinase-like domain, wild-type (179~471 aa), recombinant (domain or fragment, UniProt Q8NB16 179-471, looked up)
chain: B1 chain with E179T, D180S
notes: Mixed lineage kinase domain-like protein (MLKL), human, kinase-like domain, residues 179-471; residues of the site may remain at the N-terminus; also called MLKL KLD; WT; source: Sf9 insect cells (baculovirus), purified (Glutathione Sepharose 4B, on-column HRV3C digestion, Superdex 75 or 200); not shown: GST, N-terminal, cleaved
Regarding B2, the “stoichiometry N” value in data set [5] worked out at 2.

B3: His-Sumo tagged human MLKL (126~181 aa), internal coiled-coil region, wild-type (domain or fragment, UniProt Q8NB16 126-181, looked up)
chain: PISQGASWAQEDQQDADEDRRAFQMLRRDNEKIEASLRRLEINMKEIKETLRQYLP
notes: Vector PET-SUMO; also called internal coiled-coil in brace region; source: E. coli BL21(DE3), purified (NTA resin, Superdex 200)
On to B3, for which the binding result in data set [6] is “binds”.

The record behind these values is paper PMC8219780, “The MLKL kinase-like domain dimerization is an indispensable step of mammalian MLKL activation in necroptosis signaling” (Cell Death & Disease, 2021).
